Laboratory results reported in the domain aggregation screens of Martell et al. (2025).

test: soluble fraction after stress (log2 fold change); higher = more stays soluble; pooled small domains, quantitative proteomics; details: stress: 75 degC
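Further: 20 min heating vs room temperature control held 20 min.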

In order of rising “soluble fraction (log2)” value:
1. HMNIIHNPSKNFIESDLNDLKEGMEIEHKKFGYGLIKSIDKTQNHQKAVVNFKLVGEKTLLLSFARLRIV  -3.15
2. HMNGLDSVLRNWARQTLASGGENLLGDLTDHVTRLIISEALIMTGGNRTRAAELLGLSRPTLLAKMDKLNL  -2.92
3. HMNIAEIGQKVAQQRVALGISQERLAKLSDLSRSTIHHLEHGTLHEIGAAKLFKLLSLLDIQLK  -2.07
4. HMNIDQAFISDLERMIMPDISKYELMDIISIMENSGFTIKVEGTGNEVRQVIKPGSKLKKGQKIKIKL  -2.03
5. HMNGDWISARQEYYIRGLWDLASRAKDEASLQAMLQRIAGVTQIEWISKEKATKVILALRDIAKK  -1.6
6. HMNFDVETGLPLDSRLVVSGLIQRDGINSLKRYEGMIVYVESEAKNYQLVGGISNTDWAELS  -1.35
7. HMNIGIVSLAAVPMRKEPSDRAEMVNQILFGETFDVLEEQEKWTLVQLHHDAYQGWIDRKQWDYASGIAD  -1.33
8. HMNGELSQRQWQILRLIAQGLSNEQMARQLFVAPSTIKTHINHLYAKLGVRTRAEAQAIARQKLMA  -1.23
9. HMNETLKQIRINALQYSEKDMATKLGLPLSEYKEIENDKPLNFTLLIRLSQAVGKTIDDLLNAQ  -0.95
10. HMNIILFLDELHRLLSDLPPEERNQAIKYYEDYFEDAGPENEQAILKELGSPQELANQIKATT  -0.94
11. HMNFTETENRIYEEILKNVKQHKKKTVVQIAEKVDVAPSYVIKVAKKLGYSGLNEMWYSLSGIY  -0.916
12. HMNFSRQREIIYEQVRNFPVHPTAEEVYRALKNDNPNLSLGTVYRNLNQLSEAGMLLKIPIADGSDRFDGR  -0.655
13. HMNGIFEYSDAKKVPSLVEIENAYRRARVNGAEKFAVIINGEYFGYNPQKRGIYKLNDGEYQIL  -0.428
14. HMNFGEVLQTKRKSMGLTQEDLADKLFVSSETISNWETNKTTPDIDNVIRISQLFDISLNNLLL  -0.415
15. HMNHHEIIMKNIDTLLKEKNISISKLEKSLGISNGYISRLRNGKYNFSLDLLLKLAKKFKISIDYLLTDFD  -0.317
16. HMNFTMERLYTKELTSEDIDEIKKELNSMGYTEGVEFNIIKGDKTSFIMAERQLKAKMLSHLSDLGLPRGA  -0.245
17. HMNEVETWSVQADGATGRIDKWLAEQNEWSRSQVQEWLKAGRVEVDGRVVKPNYKLSGTESIAVHIPEAV  -0.244
18. HMNGKTIEVPDITEKSIAEAQLILNQKKLRYNVVDSTRFDPAYLPFSVLTQEPEAGDEVKKNRTIYITLNP  -0.183
19. HMNGPTPEEKLAVVNAEFVRQYGDEYEELELEGEELEEYYQKALNKEDFEYDIPHLPGWDEP  -0.174
20. HMNIGEKIKKIRTQQNKSTYELADIINKNGFKISQSAISKIENGRKKIDIETLEEIAKALDIEVDLLIT  -0.153
21. HMNHNPSIARKISREIKRGAPPESLLNLARTVNDSYYRSLSFVSIAYSIKGKKSKELFEEAISNLT  -0.107
22. HMNFAERIKELRKEKGITQIDLAEAVGLSKGTVAMWEVDKREANFDTLNKLSDYFQVSIDYLLGRSNDRS  -0.0785
23. HMNHTIEENDRVLILDPRGKKYLITVTNRVFHTNLGKLDISELIGKNYGDKIKSHMGKNFSILKPNLIDYI  -0.0314
24. HMNEYSLVPDIYGMTYDDALSSLRNVGLDGRLALASTNEDLANADTRVVWQSKEAGSIIDKGSNVMFVID  -0.01
25. HMNIEIIEVQEESTPSEISKIISTESTKIIEDLLNLGVMASLETPLKNQDIEKLLEGYGYIVDIKP  0.0251
26. HMNFIPGEKINLKIVQEGKEKNQGVGYLSDGTMVIVENGSQKLGQDVEVVVIKNIQSSAGKIVFGDISK  0.158
27. HMNETHANKVYNFLKKKKKPLSAYEILKELASEGISAPTTIYRALNKLVSNGLIHKIESLNAWTV  0.251
28. HMNEWVSVEERLPTDERPVLAFIGYADTMNGFITTSYYFRFDPDPHWLGEGLIPVGLKTLFWMPLPAP  0.277
29. HMNGAAAEQARKQLMTALKASEFIAQDKLDEWLDALALPQEKRSAIIDAVDELDYEEAISELEN  0.287
30. HMNGKPDMTPIPAGSRNNDLHAWAYGRLLNHPDNAEAIRRDLFERGQTSGLKESELETIWQSIRRQLGGD  0.44
